US12104181B2, “Compositions and methods for treating viral infections targeting TRIM7” (THE BOARD OF REGENTS OF THE UNIVERSITY OF TEXAS SYSTEM, priority 2021, dated 2024)

B1: TRIM20: human RING type E3 ligase expressed from lentiviral vector (protein, UniProt O15553 1-781, looked up)
Pyrin: MAKTPSDHLLSTLEELVPYDFEKFKFKLQNTSVQKEHSRIPRSQIQRARPVKMATLLVTYYGEEYAVQLTLQVLRAINQRLLAEELHRAAIQEYSTQENGTDDSAASSSLGENKPRSLKTPDHPEGNEGNGPRPYGGGAASLRCSQPEAGRGLSRKPLSKRREKASEGLDAQGKPRTRSPALPGGRSPGPCRALEGGQAEVRLRRNASSAGRLQGLAGGAPGQKECRPFEVYLPSGKMRPRSLEVTISTGEKAPANPEILLTLEEKTAANLDSATEPRARPTPDGGASADLKEGPGNPEHSVTGRPPDTAASPRCHAQEGDPVDGTCVRDSCSFPEAVSGHPQASGSRSPGCPRCQDSHERKSPGSLSPQPLPQCKRHLKQVQLLFCEDHDEPICLICSLSQEHQGHRVRPIEEVALEHKKKIQKQLEHLKKLRKSGEEQRSYGEEKAVSFLKQTEALKQRVQRKLEQVYYFLEQQEHFFVASLEDVGQMVGQIRKAYDTRVSQDIALLDALIGELEAKECQSEWELLQDIGDILHRAKTVPVPEKWTTPQEIKQKIQLLHQKSEFVEKSTKYFSETLRSEMEMFNVPELIGAQAHAVNVILDAETAYPNLIFSDDLKSVRLGNKWERLPDGPQRFDSCIIVLGSPSFLSGRRYWEVEVGDKTAWILGACKTSISRKGNMTLSPENGYWVVIMMKENEYQASSVPPTRLLIKEPPKRVGIFVDYRVGSISFYNVTARSHIYTFASCSFSGPLQPIFSPGTRDGGKNTAPLTICPVGGQGPD
modifications: lentiviral expression
notes: human RING type E3 ligase expressed from lentiviral vector
B2: TRIM14: human RING type E3 ligase expressed from lentiviral vector (protein, UniProt Q14142 1-442, looked up)
Tripartite motif-containing …: MAGAATGSRTPGRSELVEGCGWRCPEHGDRVAELFCRRCRRCVCALCPVLGAHRGHPVGLALEAAVHVQKLSQECLKQLAIKKQQHIDNITQIEDATEKLKANAESSKTWLKGKFTELRLLLDEEEALAKKFIDKNTQLTLQVYREQADSCREQLDIMNDLSNRVWSISQEPDPVQRLQAYTATEQEMQQQMSLGELCHPVPLSFEPVKSFFKGLVEAVESTLQTPLDIRLKESINCQLSDPSSTKPGTLLKTSPSPERSLLLKYARTPTLDPDTMHARLRLSADRLTVRCGLLGSLGPVPVLRFDALWQVLARDCFATGRHYWEVDVQEAGAGWWVGAAYASLRRRGASAAARLGCNRQSWCLKRYDLEYWAFHDGQRSRLRPRDDLDRLGVFLDYEAGVLAFYDVTGGMSHLHTFRATFQEPLYPALRLWEGAISIPRLP
B3: TRIM15: human RING type E3 ligase expressed from lentiviral vector (protein, UniProt Q9C019 1-465, looked up)
E3 ubiquitin-protein ligase …: MPATPSLKVVHELPACTLCAGPLEDAVTIPCGHTFCRLCLPALSQMGAQSSGKILLCPLCQEEEQAETPMAPVPLGPLGETYCEEHGEKIYFFCENDAEFLCVFCREGPTHQAHTVGFLDEAIQPYRDRLRSRLEALSTERDEIEDVKCQEDQKLQVLLTQIESKKHQVETAFERLQQELEQQRCLLLARLRELEQQIWKERDEYITKVSEEVTRLGAQVKELEEKCQQPASELLQDVRVNQSRCEMKTFVSPEAISPDLVKKIRDFHRKILTLPEMMRMFSENLAHHLEIDSGVITLDPQTASRSLVLSEDRKSVRYTRQKKSLPDSPLRFDGLPAVLGFPGFSSGRHRWQVDLQLGDGGGCTVGVAGEGVRRKGEMGLSAEDGVWAVIISHQQCWASTSPGTDLPLSEIPRGVRVALDYEAGQVTLHNAQTQEPIFTFTASFSGKVFPFFAVWKKGSCLTLKG
modifications: lentiviral expression
notes: as for B1
B4: TRIM10: human RING type E3 ligase expressed from lentiviral vector (protein, UniProt Q9UDY6 1-481, looked up)
Tripartite motif-containing …: MASAASVTSLADEVNCPICQGTLREPVTIDCGHNFCRACLTRYCEIPGPDLEESPTCPLCKEPFRPGSFRPNWQLANVVENIERLQLVSTLGLGEEDVCQEHGEKIYFFCEDDEMQLCVVCREAGEHATHTMRFLEDAAAPYREQIHKCLKCLRKEREEIQEIQSRENKRMQVLLTQVSTKRQQVISEFAHLRKFLEEQQSILLAQLESQDGDILRQRDEFDLLVAGEICRFSALIEELEEKNERPARELLTDIRSTLIRCETRKCRKPVAVSPELGQRIRDFPQQALPLQREMKMFLEKLCFELDYEPAHISLDPQTSHPKLLLSEDHQRAQFSYKWQNSPDNPQRFDRATCVLAHTGITGGRHTWVVSIDLAHGGSCTVGVVSEDVQRKGELRLRPEEGVWAVRLAWGFVSALGSFPTRLTLKEQPRQVRVSLDYEVGWVTFTNAVTREPIYTFTASFTRKVIPFFGLWGRGSSFSLSS
modifications: lentiviral expression
notes: as for B1
B5: TRIM18: human RING type E3 ligase expressed from lentiviral vector (protein, UniProt O15344 1-667, looked up)
E3 ubiquitin-protein ligase …: METLESELTCPICLELFEDPLLLPCAHSLCFNCAHRILVSHCATNESVESITAFQCPTCRHVITLSQRGLDGLKRNVTLQNIIDRFQKASVSGPNSPSETRRERAFDANTMTSAEKVLCQFCDQDPAQDAVKTCVTCEVSYCDECLKATHPNKKPFTGHRLIEPIPDSHIRGLMCLEHEDEKVNMYCVTDDQLICALCKLVGRHRDHQVAALSERYDKLKQNLESNLTNLIKRNTELETLLAKLIQTCQHVEVNASRQEAKLTEECDLLIEIIQQRRQIIGTKIKEGKVMRLRKLAQQIANCKQCIERSASLISQAEHSLKENDHARFLQTAKNITERVSMATASSQVLIPEINLNDTFDTFALDFSREKKLLECLDYLTAPNPPTIREELCTASYDTITVHWTSDDEFSVVSYELQYTIFTGQANVVSLCNSADSWMIVPNIKQNHYTVHGLQSGTKYIFMVKAINQAGSRSSEPGKLKTNSQPFKLDPKSAHRKLKVSHDNLTVERDESSSKKSHTPERFTSQGSYGVAGNVFIDSGRHYWEVVISGSTWYAIGLAYKSAPKHEWIGKNSASWALCRCNNNWVVRHNSKEIPIEPAPHLRRVGILLDYDNGSIAFYDALNSIHLYTFDVAFAQPVCPTFTVWNKCLTIITGLPIPDHLDCTEQLP
modifications: lentiviral expression
notes: as for B1
B6: TRIM11: human RING type E3 ligase expressed from lentiviral vector (protein, UniProt Q96F44 1-468, looked up)
E3 ubiquitin-protein ligase …: MAAPDLSTNLQEEATCAICLDYFTDPVMTDCGHNFCRECIRRCWGQPEGPYACPECRELSPQRNLRPNRPLAKMAEMARRLHPPSPVPQGVCPAHREPLAAFCGDELRLLCAACERSGEHWAHRVRPLQDAAEDLKAKLEKSLEHLRKQMQDALLFQAQADETCVLWQKMVESQRQNVLGEFERLRRLLAEEEQQLLQRLEEEELEVLPRLREGAAHLGQQSAHLAELIAELEGRCQLPALGLLQDIKDALRRVQDVKLQPPEVVPMELRTVCRVPGLVETLRRFRGDVTLDPDTANPELILSEDRRSVQRGDLRQALPDSPERFDPGPCVLGQERFTSGRHYWEVEVGDRTSWALGVCRENVNRKEKGELSAGNGFWILVFLGSYYNSSERALAPLRDPPRRVGIFLDYEAGHLSFYSATDGSLLFIFPEIPFSGTLRPLFSPLSSSPTPMTICRPKGGSGDTLAPQ
B7: TRIM17: human RING type E3 ligase expressed from lentiviral vector (protein, UniProt Q9Y577 1-477, looked up)
E3 ubiquitin-protein ligase …: MEAVELARKLQEEATCSICLDYFTDPVMTTCGHNFCRACIQLSWEKARGKKGRRKRKGSFPCPECREMSPQRNLLPNRLLTKVAEMAQQHPGLQKQDLCQEHHEPLKLFCQKDQSPICVVCRESREHRLHRVLPAEEAVQGYKLKLEEDMEYLREQITRTGNLQAREEQSLAEWQGKVKERRERIVLEFEKMNLYLVEEEQRLLQALETEEEETASRLRESVACLDRQGHSLELLLLQLEERSTQGPLQMLQDMKEPLSRKNNVSVQCPEVAPPTRPRTVCRVPGQIEVLRGFLEDVVPDATSAYPYLLLYESRQRRYLGSSPEGSGFCSKDRFVAYPCAVGQTAFSSGRHYWEVGMNITGDALWALGVCRDNVSRKDRVPKCPENGFWVVQLSKGTKYLSTFSALTPVMLMEPPSHMGIFLDFEAGEVSFYSVSDGSHLHTYSQATFPGPLQPFFCLGAPKSGQMVISTVTMWVKG
B8: TRIM19: human RING type E3 ligase expressed from lentiviral vector (protein, UniProt P29590 1-882, looked up)
Protein PML: MEPAPARSPRPQQDPARPQEPTMPPPETPSEGRQPSPSPSPTERAPASEEEFQFLRCQQCQAEAKCPKLLPCLHTLCSGCLEASGMQCPICQAPWPLGADTPALDNVFFESLQRRLSVYRQIVDAQAVCTRCKESADFWCFECEQLLCAKCFEAHQWFLKHEARPLAELRNQSVREFLDGTRKTNNIFCSNPNHRTPTLTSIYCRGCSKPLCCSCALLDSSHSELKCDISAEIQQRQEELDAMTQALQEQDSAFGAVHAQMHAAVGQLGRARAETEELIRERVRQVVAHVRAQERELLEAVDARYQRDYEEMASRLGRLDAVLQRIRTGSALVQRMKCYASDQEVLDMHGFLRQALCRLRQEEPQSLQAAVRTDGFDEFKVRLQDLSSCITQGKDAAVSKKASPEAASTPRDPIDVDLPEEAERVKAQVQALGLAEAQPMAVVQSVPGAHPVPVYAFSIKGPSYGEDVSNTTTAQKRKCSQTQCPRKVIKMESEEGKEARLARSSPEQPRPSTSKAVSPPHLDGPPSPRSPVIGSEVFLPNSNHVASGAGEAEERVVVISSSEDSDAENSSSRELDDSSSESSDLQLEGPSTLRVLDENLADPQAEDRPLVFFDLKIDNETQKISQLAAVNRESKFRVVIQPEAFFSIYSKAVSLEVGLQHFLSFLSSMRRPILACYKLWGPGLPNFFRALEDINRLWEFQEAISGFLAALPLIRERVPGASSFKLKNLAQTYLARNMSERSAMAAVLAMRDLCRLLEVSPGPQLAQHVYPFSSLQCFASLQPLVQAAVLPRAEARLLALHNVSFMELLSAHRRDRQGGLKKYSRYLSLQTTTLPPAQPAFNLQALGTYFEGLLEGPALARAEGVSTPLAGRGLAERASQQS
B9: TRIM13: human RING type E3 ligase expressed from lentiviral vector (protein, UniProt O60858 1-407, looked up)
E3 ubiquitin-protein ligase …: MELLEEDLTCPICCSLFDDPRVLPCSHNFCKKCLEGILEGSVRNSLWRPAPFKCPTCRKETSATGINSLQVNYSLKGIVEKYNKIKISPKMPVCKGHLGQPLNIFCLTDMQLICGICATRGEHTKHVFCSIEDAYAQERDAFESLFQSFETWRRGDALSRLDTLETSKRKSLQLLTKDSDKVKEFFEKLQHTLDQKKNEILSDFETMKLAVMQAYDPEINKLNTILQEQRMAFNIAEAFKDVSEPIVFLQQMQEFREKIKVIKETPLPPSNLPASPLMKNFDTSQWEDIKLVDVDKLSLPQDTGTFISKIPWSFYKLFLLILLLGLVIVFGPTMFLEWSLFDDLATWKGCLSNFSSYLTKTADFIEQSVFYWEQVTDGFFIFNERFKNFTLVVLNNVAEFVCKYKLL
modifications: lentiviral expression
notes: as for B1

System: coxsackievirus B3 (CVB3-GFP)
Assay type: cell-based
Conditions: HeLa cells, replicate R1; for Percent Infected R1: GFP-positive cells within RFP-positive gate

| Molecule | Percent Infected R1 | Z score R1 |
| --- | --- | --- |
| B1 | 78.8% | −0.125 |
| B2 | 70.6% | −0.229 |
| B3 | 66.8% | −0.277 |
| B4 | 58.7% | −0.38 |
| B5 | 71.6% | −0.216 |
| B6 | 58.2% | −0.387 |
| B7 | 75.9% | −0.162 |
| B8 | 60.8% | −0.354 |
| B9 | 53% | −0.453 |
